Measurements published in US20250197889.

B1: Nme1Cas9 (Neisseria meningitidis strain 8013 Cas9), recombinant purified protein (protein)
chain: MAAFKPNSINYILGLDIGIASVGWAMVEIDEEENPIRLIDLGVRVFERAEVPKTGDSLAMARRLARSVRRLTRRRAHRLLRTRRLLKREGVLQAANFDENGLIKSLPNTPWQLRAAALDRKLTPLEWSAVLLHLIKHRGYLSQRKNEGETADKELGALLKGVAGNAHALQTGDFRTPAELALNKFEKESGHIRNQRSDYSHTFSRKDLQAELILLFEKQKEFGNPHVSGGLKEGIETLLMTQRPALSGDAVQKMLGHCTFEPAEPKAAKNTYTAERFIWLTKLNNLRILEQGSERPLTDTERATLMDEPYRKSKLTYAQARKLLGLEDTAFFKGLRYGKDNAEASTLMEMKAYHAISRALEKEGLKDKKSPLNLSPELQDEIGTAFSLFKTDEDITGRLKDRIQPEILEALLKHISFDKFVQISLKALRRIVPLMEQGKRYDEACAEIYGDHYGKKNTEEKIYLPPIPADEIRNPVVLRALSQARKVINGVVRRYGSPARIHIETAREVGKSFKDRKEIEKRQEENRKDREKAAAKFREYFPNFVGEPKSKDILKLRLYEQQHGKCLYSGKEINLGRLNEKGYVEIDHALPFSRTWDDSFNNKVLVLGSENQNKGNQTPYEYFNGKDNSREWQEFKARVETSRFPRSKKQRILLQKFDEDGFKERNLNDTRYVNRFLCQFVADRMRLTGKGKKRVFASNGQITNLLRGFWGLRKVRAENDRHHALDAVVVACSTVAMQQKITRFVRYKEMNAFDGKTIDKETGEVLHQKTHFPQPWEFFAQEVMIRVFGKPDGKPEFEEADTLEKLRTLLAEKLSSRPEAVHEYVTPLFVSRAPNRKMSGQGHMETVKSAKRLDEGVSVLRVPLTQLKLKDLEKMVNREREPKLYEALKARLEAHKDDPAKAFAEPFYKYDKAGNRTQQVKAVRVEQVQKTGVWVRNHNGIADNATMVRVDVFEKGDKYYLVPIYSWQVAKGILPDRAVVQGKDEEDWQLIDDSFNFKFSLHPNDLVEVITKKARMFGYFASCHRGTGNINIRIHDLDHKIGKNGILEGIGVKTALSFQKYQIDELGKEIRPCRLKKRPPVR
- in vitro cleavage of a target DNA by Cas9-sgRNA (10:1 Acr:Cas9 molar ratio) (AcrIIC4Hpa): all Arc families inhibited Nme1Cas9
- in vitro cleavage of a target DNA by Cas9-sgRNA (10:1 Acr:Cas9 molar ratio) (AcrIIC2Nme): all Arc families inhibited Nme1Cas9
- in vitro cleavage of a target DNA by Cas9-sgRNA (10:1 Acr:Cas9 molar ratio) (AcrIIC3Nme): all Arc families inhibited Nme1Cas9
- in vitro cleavage of a target DNA by Cas9-sgRNA (10:1 Acr:Cas9 molar ratio) (AcrIIC5Smu): all Arc families inhibited Nme1Cas9
- in vitro cleavage of a target DNA by Cas9-sgRNA (10:1 Acr:Cas9 molar ratio) (AcrIIC1Nme): all Arc families inhibited Nme1Cas9
- in vitro cleavage of a target DNA by Cas9-sgRNA (10:1 Acr:Cas9 molar ratio) (AcrE2): AcrE2 failed to do so
